From US6410248

Experiments:
[1] = target: Zif268 zinc fingers 1-3 (wild type) (UniProt P08046); test: competition; conditions: nonspecific over specific dissociation constant ratio; calf thymus competitor in EMSA
[2] = test system: TATA box-selected zinc finger protein (Zif268 variant, boxed clone FIG. 3A) (artificial); test: competition; conditions: nonspecific over specific dissociation constant ratio; calf thymus competitor in EMSA
[3] = test system: NRE-selected zinc finger protein (Zif268 variant, boxed clone FIG. 3C) (artificial); test: competition; conditions: nonspecific over specific dissociation constant ratio; calf thymus competitor in EMSA
[4] = test system: p53 site-selected zinc finger protein (Zif268 variant, boxed clone FIG. 3B) (artificial); test: competition; conditions: nonspecific over specific dissociation constant ratio; calf thymus competitor in EMSA
[5] = test system: TATA box-selected zinc finger protein (Zif268 variant, boxed clone FIG. 3A) (artificial); test: EMSA; conditions: same buffer, 5 mM MgCl2, 20 uM ZnSO4, pH 7.9
[6] = test system: p53 site-selected zinc finger protein (Zif268 variant, boxed clone FIG. 3B) (artificial); test: EMSA; conditions: same buffer, 5 mM MgCl2, 20 uM ZnSO4, pH 7.9
[7] = test system: NRE-selected zinc finger protein (Zif268 variant, boxed clone FIG. 3C) (artificial); test: EMSA; conditions: same buffer, 5 mM MgCl2, 20 uM ZnSO4, pH 7.9

## calf thymus DNA
[1]
  binding signal (fold (Kdns/Kd)): 31000
[2]
  DNA-binding specificity ratio (nonspecific Kd / specific Kd) (fold (Kdns/Kd)): 25000
[3]
  DNA-binding specificity ratio (nonspecific Kd / specific Kd) (fold (Kdns/Kd)): 36000
[4]
  DNA-binding specificity ratio (nonspecific Kd / specific Kd) (fold (Kdns/Kd)): 54000

## AGGGGGGCTATAAAAGGGGGT (double strand) [TATA box site]
[5]
  Kd: 0.12 nM

## GCTGTTGGGACATGTTCGTGA (double strand) [p53 binding site]
[6]
  Kd: 0.11 nM

## GCCGTCAAGGGTTCAGTGGGG (double strand) [NRE site]
[7]
  Kd: 0.038 nM
